Results from patent US20220380801A1, “TRIPARTITE SYSTEMS FOR PROTEIN DIMERIZATION AND METHODS OF USE” (priority 2019, published 2022).
“And” between values parts separate entries of the source, which are not always exact repeats. Equal values may be shown once. Read-outs that look alike come from different tables or passages of the source.

What was measured:
[1] = test system: luciferase reporter gene in HEK293 cells; assay: Transcriptional regulation assay (split transcription factor), luciferase reporter; format: cell-based, human; details: for Max fold change / EC50: one copy; for EC50: simeprevir dose-response, read-out: EC50
Text: The iDimerize regulated transcription system (Takara) was used to test the ability of PRSIM-based CIDs to regulate gene expression. […] The DBD and AD are separately fused to the two protein components of a CID such that, only in the presence of the small molecule inducer, the AD is brought into close proximity to the DBD, recruiting the transcription machinery to a promoter harbouring the DBD recognition sites. The iDimerize regulated transcription system (Takara) provides two vectors, pHet-Act1-2 and pZFHD1-Luciferase. The pHet-Act1-2 vector encodes two fusion proteins that represent a positive control: one is a fusion between FRB (T82L mutant; DmrC) and an activation domain (AD) from human p65 (SEQ ID NO: 42); the other is a fusion protein comprised of a DNA binding domain (ZFHD1) (SEQ ID NO: 43) fused to three tandem copies of FKBP12 (DmrA). These sequences are preceded by a CMV promoter and separated by an internal ribosome entry site (IRES). The ZFHD1 vector encodes luciferase preceded by an inducible promoter consisting of 12 copies of the recognition sequence of the ZFHD1 DBD upstream of a minimal IL-2 promoter. Binding of the DBD to its recognition sequence and recruitment of the transcriptional machinery by the AD initiates transcription of the luciferase reporter gene. The DNA sequence encoding HCV NS3/4A PR (S139A) was purchased as a DNA string from GeneArt and cloned into the pHet-Act1-2 vector as either an N-terminal fusion partner to the activation domain (SEQ ID NO: 44) (replacing FRB) or as a C-terminal fusion partner to the DNA binding domain (SEQ ID NO: 45) (replacing FKBP12) with flexible linkers (TGGGGSGGGGS (SEQ ID NO: 185) and SA, respectively) between the fusion partners. Subsequently, sequences encoding one copy of a panel of 12 PRSIM molecules (Table 2) were purchased as DNA strings from GeneArt and were cloned using Gibson assembly into the HCV NS3/4A PR (S139A)-containing pHetAct1-2 constructs described above, as a fusion partner to either the DBD (SEQ ID NOS: 46-56) or AD (SEQ ID NOS: 57-67), respectively. An equivalent construct was generated to replace the three copies of FKBP12 in pHet-Act1-2 with a single copy of FKBP12. The sequence of the constructs encoding both activation domain and DNA-binding domain fusion proteins was confirmed by Sanger sequencing of the entire coding region.
Sequences encoding the three HCV NS3/4A PR (S139A) mutants (Table 6) were purchased as DNA strings from GeneArt and were cloned using Gibson assembly into the pHetAct1-2 HCV NS3/4A PR (S139A)-PRSIM_23 (3 tandem copy) construct described above as a fusion partner to the AD (SEQ ID NOs: 211-216).
All transcriptional regulation assays were performed in adherent HEK293 cells cultured in 384-well plates. Cells enzymatically dissociated from a tissue culture flask were counted and plated at 7.5×10^3 cells/well in a 384-well plate. The plates were incubated overnight at 37° C. with 5% CO2 to allow the cells to adhere. On day 2, the cells were co-transfected with a pHet-Act1-2 plasmid (containing the FRB:FKBP12 control fusion proteins (Clontech) or the HCV NS3/4A PR (S139A):PRSIM fusion proteins) and a pZFHD1 plasmid (encoding either luciferase (Clontech) or NanoLuc-PEST (as described above)) using Lipofectamine LTX (ThermoFisher). On day 3, wells were treated with different concentrations of either A/C heterodimeriser (for the FRB:FKBP12 control), simeprevir or with vehicle control, and 24 hours later luminescence was quantified with an Envision plate reader immediately following addition of SteadyGlo luciferase substrate (Promega) or Nano-Glo Vivazine luciferase substrate (Promega). Alternatively, reverse transfections were carried out on Day 1, addition of dimeriser on Day 2 and luminescence quantified 24 hours later on Day 3.
Luminescence readings were converted into fold-change by dividing the signal in the presence of simeprevir by that in the absence of simeprevir.

HCV NS3/4A PR (S139A) = HCV NS3/4A PR (S139A) (Hepatitis C virus subtype 1a, UniProt A8DG50, A1066T/I1043Q/I1044E/L1039E/L1040E/L1047Q/S1165A, form not given); assay: Biacore 8K binding kinetics of PRSIM binding molecules; details: 10 nM simeprevir present
Experimental: The scFv and Tn3 PRSIM binding molecules were covalently immobilised to a CM5 chip surface using standard amine coupling techniques at a concentration of 1 μg/ml in 10 mM sodium acetate pH 4.5.
The HCV NS3/4A PR (S139A), or BSA control, was diluted 1:4 (1.25-20 nM)±10 nM simeprevir in 10 mM Hepes pH 7.4, 150 mM NaCl, 0.05% Surfactant P20, 0.01% DMSO, ensuring constant simeprevir and DMSO concentration. The samples were flowed over the chip at 50 μl/min using single cycle kinetics, with 120 sec association and 600 sec dissociation. The chip surface was regenerated with two 20 sec pulses of 10 mM Glycine-HCl pH 3.0. The final sensorgrams were analysed using the Biacore 8K Evaluation Software and the affinity constant KD was determined using a 1:1 binding model. The same method was used for measuring the affinity of the HCV NS3/4A PR mutants for PRSIM_23 with minor deviations. The mutants were diluted 1:4 (2.5-40 nM)±simeprevir in 10 mM Hepes pH 7.4, 150 mM NaCl, 0.05% Surfactant P20, 0.08% DMSO, ensuring constant simeprevir and DMSO concentration. The samples were flowed over the chip at 50 μl/min using single cycle kinetics, with 180 sec association and 600 sec dissociation.

Molecule | Max fold change ([1]; PRSIM fused to AD) | EC50 ([1]; PRSIM fused to AD) [nM] | Max fold change ([1]; PRSIM fused to DBD) | EC50 ([1]; PRSIM fused to DBD) [nM] | Kd (HCV NS3/4A PR (S139A)) [nM] | Rmax (HCV NS3/4A PR (S139A)) [RUs] | ka (HCV NS3/4A PR (S139A)) [M⁻¹ s⁻¹] | kd (HCV NS3/4A PR (S139A)) [s⁻¹] | fold increase in luciferase expression ([1]; direct comparison of DBD-PRSIM constructs with FRB:FKBP12:rapalog positive control) [fold]
PRSIM_67: scFv PRSIM binding molecule, SEQ ID NO: 13 (protein, PRSIM_67) scFv: EVQLVQSGAEVKKPGAAVRISCKTSGYVFTSYYVHWVRQAPGQGLEWMGVINPSGGNTNYAQKFQDRVTMTRDTSTTTVYMELSSLMFDDTAVYYCAKRDYGGPLANWGRGTLVTVSSGGGGSGGGGSGGGGSALSYELTQPPSVSEAPRQRVTISCSGSSSNIGNNAVNWYQQLPGKAPKLLIFYDDLLPSGVSDRFSGSKSGTSASLAISGLQSEDEADYYCAAWDDSLNGLVFGTGTKLTVL | 87.1 | 4.97 | 1 | 2.05 | 11.5 | 19.3 | 1.97e+07 | 0.226 | –
PRSIM_57: scFv specific for HCV NS3/4A PR (S139A):simeprevir complex, SEQ ID NO: 12 (protein, PRSIM_57) scFv: QVQLVQSGAEVKKPGSSVKVSCKASGGTFSSYAISWVRQAPGQGLEWMGGIIPIFGTANYAQKFQGRVTITADESTSTAYMELSSLRSEDTAVYYCARHTNYITVFDYWGQGTLVTVSSGGGGSGGGGSGGGGSAQSVLTQPPSASGTPGQRVTISCSGSSSNIGSNTVNWYQQLPGTAPKLLIYSNNQRPSGVPDRFSGSKSGTSASLAISGLQSEDEADYYCAAWDHHWEQVVFGGGTKLTVL | 10.73 | 3.21 | 146 and 146.6 | 3.54 | 15 | 69.1 | 1.73e+07 | 0.26 | 100
PRSIM_33: Tn3 PRSIM binding molecule, SEQ ID NO: 7 (protein, PRSIM_33) RLDAPSQIEVKDVTDTTALITWYPPGRWYDDIWYFELTYGIKDVPGDRTTIKLARGDDVYSIGNLKPDTEYEVSLISWGPDRGDRAGSNPAKITFKTGL | 2.9 | 82.4 | 33.14 | 12.8 | – | 171.9 | 3.65e+06 | 0.0303 | –
